Experimental data from US20250295796A1, “CELL PENETRATING POLYPEPTIDES (CPPS) AND THEIR USE IN HUMAN THERAPY” (RDP PHARMA AG, priority 2021, published 2025).

How the values were obtained:
[1] = test system: HEP3B; experiment: Monolayer assay, 96h treatment, HEP3B; type: cell-based, human
Protocol: (§1) Monolayer Assay Propidium Iodid (PI). Cells were harvested from exponential phase cultures, counted and depending on the cell line 3.000 to 20.000 cells were plated in 96-well flat-bottom microtiter plates After a 24 h recovery period to allow cells to resume exponential growth, 10 μl of culture medium (four control wells/plate) or culture medium with the test compound were added by a liquid handling robotic system and treatment continued for four days. Compounds were applied in half-log increments at 10 concentrations in duplicate. Three independent experiments were performed. Cells were then washed with 200 μl PBS to remove dead cells followed by addition of 200 μl of a solution containing 7 μg/ml propidium iodide (PI) and 0.1% (v/v) Triton X-100. After an incubation period of 1-2 h at room temperature, fluorescence (FU) was measured using the Cytofluor 4000 microplate reader (excitation λ=530 nm, emission λ=620 nm) to quantify the amount of attached viable cells. Concentrations required for 50% inhibition of cell growth (IC50) were calculated by non-linear regression (log[conc. of inhibitor]versus response (% T/C)) using the analysis software GraphPad Prism®, Prism 5 for windows, version 5.01 (GraphPad Software Inc., CA).
CROMOC36—in vitro activity Human hepatocellular carcinoma cell lines IC50 values of CROMOC36 and Sorafenib, 96h treatment. […]

[2] = test system: human pancreatic tumor cell lines; experiment: Propidium iodide based monolayer proliferation assay, panel of 13 human pancreatic tumor cell lines
Protocol: as §1
CROMOC36—in vitro activity Human pancreatic carcinoma cell lines. The aim of this study was to investigate the antitumor activity of CROMOC36 in vitro on a panel of 13 human pancreatic tumor cell lines. Antitumor activity was assessed after four days of CROMOC36 treatment using a propidium iodide based monolayer proliferation assay. Up to four experiments were performed in each cell line, testing CROMOC36 at ten concentrations in half-log increments up to 1 μM. Taxol, an antitumor agent commonly used for the treatment of pancreatic cancer, was used as a reference compound and tested in half-log steps up to 0.3 μM.

[3] = test system: lung cancer, ovarian cancer and neuroblastoma and colon cancer cells; experiment: SRB assay for 96 hours, cancer cells; type: cell-based; conditions: SRB 96 hours, various cancer cells; read-out: IC50 range
Protocol: (§2) Cells were harvested from exponential phase cultures, and depending on the cell line 10.000 to 30.000 cells were plated in 96-well flat-bottom microtiter plates. After a 24 h recovery period to allow cells to resume exponential growth, supernatant was discarded and 100 μl of culture medium (eight control wells/plate) or culture medium with the test compound were added by a liquid handling robotic system (Microlab® Starlet, Hamilton) and treatment continued for 72 hrs. Compounds were applied at 9 concentrations eight wells/concentration). At least three independent experiments were performed. For SRB staining, cells were fixed with SRB01 for 1h at 4° C. (final concentration of TCA=10%) washed with a plate washer (Hydroflex, Tecan©) for five times with H2O; and stained with 100 μl of SRB02 at room temperature for 10 min following 4 washes in SRB03 and finally 100 μl of developer solution SRB04 for 5 minutes with shaking. Optical density was assessed using a plate-reader (Sunrise, Tecan©) at 540 nm. Concentrations required for 50% inhibition of cell growth (IC50) were calculated by non-linear regression (log[conc. of inhibitor] versus response (% T/C)) using the analysis software GraphPad Prism®, Prism 5 for windows, version 5.01 (GraphPad Software Inc., CA). (SRB Buffers FIG. 25).

[4] = test system: primary hepatocytes; experiment: SRB assay for 96 hours, primary hepatocytes; type: cell-based; conditions: non-tumor cells primary hepatocytes, SRB 96 hours
Protocol: as §2, with “After a 24 h recovery period to allow cells to resume exponential growth, supernatant was discarded and 100 μl of culture medium (eight control wells/plate) or culture medium with the test compound were added by a liquid handling robotic system (Microlab® Starlet, Hamilton) and treatment continued for 72 hrs.” left out

[5] = test system: murine Lewis lung carcinoma; experiment: Lewis lung carcinoma (LLC) model, primary tumor growth and metastasis
Protocol: The efficacy of CROMOC36 on the Lewis lung carcinoma (LLC) model, was selected for testing the activity of CROMOC36 against primary tumor growth and metastasis formation. CROMOC36 was tested as a single agent and in combination with Cyclophosphamide (CYPP). In addition, single-agent CYPP was used as a reference compound, allowing comparison of the efficacy of CROMOC36 with a commonly used antitumor agent (summarized in FIG. 9).

[6] = Toxicology experiments and various tumor models, cardiotoxicity; type: in vivo
[7] = test system: immortalized non-tumor cells; experiment: SRB assay, cytotoxicity to non-tumor cells versus cancer cells
[8] = CROMOC36 4 mg/kg, q2dx5, single agent
[9] = combination of CROMOC36 and CYPP

B1: CROMOC36: single chain PvuII endonuclease fused at its C-terminus to DDM36, PEGylated final product used in the Examples (protein)
chain: MSHPDLNKLLELWPHIQEYQDLALKHGINDIFQDNGGKLLQVLLITGLTVLPGREGNDAVDNAGQEYELKSINIDLTKGFSTHHHMNPVIIAKYRQVPWIFAIYRGIAIEAIYRLEPKDLEFYYDKWERKWYSDGHKDINNPKIPVKYVMEHGTKIYGSGGSGGSSHPDLNKLLELWPHIQEYQDLALKHGINDIFQDNGGKLLQVLLITGLTVLPGREGNDAVDNAGQEYELKSINIDLTKGFSTHHHMNPVIIAKYRQVPWIFAIYRGIAIEAIYRLEPKDLEFYYDKWERKWYSDGHKDINNPKIPVKYVMEHGTKIYGNSGSGKKKKKGKGSGLGSGKKKDPLGSGLGSGKKKKKGKGSGLGSGKKKDPLGST
modifications: PEGylated; peptide, CROMOC36
[1]
  IC50: 12.2 nM
[2]; 13 pancreatic cell lines, four days treatment, read-out: geomean IC50
  IC50: 45.9 nM
[2]; on five of the cell lines tested, up to 1 μM
  antitumor activity: no activity or only marginal activity
[3]
  IC50: 0.5 to 19 nM
[4]
  IC50: > 10000 nM
[5]; CROMOC36 0.4 mg/kg
  inhibition of total number of metastases: 24%
[5]; CROMOC36 4 mg/kg
  inhibition of total number of metastases: 66%
[5]; [8]
  reduction of number of large metastases: 69.1%
  reduction of number of medium metastases: 49.2%
  reduction of number of small metastases: 61.2%
[5]; LLC model
  tolerability: No major issues
[5]; combination of CROMOC36 (4 mg/kg) and CYPP (180 mg/kg)
  inhibition of number of metastases: 81%
[5]; [9]
  final decrease in body weight (BW) compared to the start of the experiment: 3.7%
  reduction of number of large metastases: 89.2%
  reduction of number of medium metastases: 66.7%
  reduction of number of small metastases: 81.1%
[5]; simultaneous combination of CROMOC36 and CYPP
  tumor growth inhibition (TI), primary tumor: 85.6%
[5]; single agent, CROMOC36 s.c. q2dx5
  tumor growth inhibition (TI), primary tumor: 15.2%
[6]
  cardiotoxic effects: no cardiotoxic effects were observed
[7]
  times less cytotoxic to immortalized non-tumor cells than to cancer cells: 40->100
